Usually IC50 stands for the concentration needed to halve the response being measured.

For experiment [1], the target named is T1, ^125I-IFN-α2b binding site on Daudi and WISH cells (human).
T1 chain 1: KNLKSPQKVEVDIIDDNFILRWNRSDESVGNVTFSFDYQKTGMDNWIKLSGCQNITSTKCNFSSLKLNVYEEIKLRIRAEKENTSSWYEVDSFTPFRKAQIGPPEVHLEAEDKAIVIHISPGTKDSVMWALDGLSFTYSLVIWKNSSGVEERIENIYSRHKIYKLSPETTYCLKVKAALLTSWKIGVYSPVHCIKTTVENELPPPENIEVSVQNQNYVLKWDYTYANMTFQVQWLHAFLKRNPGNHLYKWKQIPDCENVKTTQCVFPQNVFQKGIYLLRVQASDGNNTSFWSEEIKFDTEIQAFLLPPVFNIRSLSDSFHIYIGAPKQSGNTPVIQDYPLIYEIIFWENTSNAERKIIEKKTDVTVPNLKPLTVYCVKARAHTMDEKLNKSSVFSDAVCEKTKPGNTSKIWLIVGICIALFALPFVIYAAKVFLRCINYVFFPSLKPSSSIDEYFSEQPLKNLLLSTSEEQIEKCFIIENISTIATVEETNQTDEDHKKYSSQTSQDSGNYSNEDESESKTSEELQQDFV
T1 chain 2: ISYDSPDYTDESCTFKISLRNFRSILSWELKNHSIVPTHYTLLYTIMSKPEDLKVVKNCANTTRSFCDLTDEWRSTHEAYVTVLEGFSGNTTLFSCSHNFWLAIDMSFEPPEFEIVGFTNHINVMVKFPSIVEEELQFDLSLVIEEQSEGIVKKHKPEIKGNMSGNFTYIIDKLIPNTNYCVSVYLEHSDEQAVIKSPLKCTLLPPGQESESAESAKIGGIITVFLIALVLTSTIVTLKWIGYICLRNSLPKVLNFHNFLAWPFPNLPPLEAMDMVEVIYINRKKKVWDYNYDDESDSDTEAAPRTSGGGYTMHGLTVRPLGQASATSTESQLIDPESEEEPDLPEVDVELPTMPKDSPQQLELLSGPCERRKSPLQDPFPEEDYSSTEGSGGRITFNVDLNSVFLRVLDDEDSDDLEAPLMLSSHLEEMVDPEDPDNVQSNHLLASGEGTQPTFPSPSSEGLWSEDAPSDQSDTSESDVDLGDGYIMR
Description: displacement of ^125I-IFN-α2b from Daudi cells (competitor: ^125I-IFN-α2b).

Experiment [2] has as its target T1, ^125I-IFN-α2b binding site on Daudi and …. Description: displacement of ^125I-IFN-α2b from WISH cells (competitor: ^125I-IFN-α2b).

B1: HY-2: IFN-α21a(1-95)/IFN-α2c(96-166) (ligand)
chain: CDLPQTHSLGNRRALILLAQMGRISPFSCLKDRHDFGFPQEEFDGNQFQKAQAISVLHEMIQQTFNLFSTKDSSATWEQSLLEKFSTELNQQLNDLEACVIQGVGVTETPLMKEDSILAVRKYFQRITLYLKEKKYSPCAWEVVRAEIMRSFSLSTNLQESLRSKE
notes: Expressed from pQE30 in E. coli and purified on Ni-NTA, so an amino-terminal hexa-histidine tag may be present; also called AF085804
As to B1, the IC50 is > 0.4 µg/mL in experiment [1] and > 0.2 µg/mL in experiment [2].

B2: IFN-α21a (ligand, human, UniProt P01568 24-189, looked up)
chain: CDLPQTHSLGNRRALILLAQMGRISPFSCLKDRHDFGFPQEEFDGNQFQKAQAISVLHEMIQQTFNLFSTKDSSATWEQSLLEKFSTELNQQLNDLEACVIQEVGVEETPLMNVDSILAVKKYFQRITLYLTEKKYSPCAWEVVRAEIMRSFSLSKIFQERLRRKE
notes: mature; Recombinant, made in E. coli from pQE30/A21 and purified on Ni-NTA, so an amino-terminal hexa-histidine tag may be present; also called interferon-α21a; IFNA21
Consider B2, for which the IC50 in experiment [1] is > 0.4 µg/mL; in experiment [2], > 0.2 µg/mL.
